Results on 7 molecules are retold here after US20090208994A1, “GENETIC INCORPORATION OF 3-AMINOTYROSINE INTO REDUCTASES” (THE SCRIPPS RESEARCH INSTITUTE, priority 2007, published 2009).

For series [1], the target named is T1, E. coli ribonucleotide reductase (α2β2 complex) (Escherichia coli, UniProt P00452).
T1 construct: made in house; host or cells: E. coli DH10B for the NH2Y-α2s
The following applies: previous studies; inactivation of wt α2β2 by N3ADP/dGTP; 20 s time scale; cited from earlier work.

Series [2] has as its system DH10B E. coli cells. As to the kind of experiment: Toxicity of NH2Y: growth in liquid GMML medium and on agar plates. It counts as cell-based. The source says: Toxicity and uptake of NH2Y. Evolution of an NH2Y-specific aminoacyl-tRNA synthetase (RS) requires that NH2Y is taken up by E. coli, that it is not toxic, and that it is not incorporated into proteins by any endogenous RSs. All three requirements were met by NH2Y. […] The presence of DTT however, caused cells to grow at a rate 25-35% more slowly than those in the presence of only NH2Y or absence of NH2Y/DTT.

The conditions of series [3]: pH 7; cited from earlier work.
The target in series [4] is T2, wt β2, P69924.
T2 chain: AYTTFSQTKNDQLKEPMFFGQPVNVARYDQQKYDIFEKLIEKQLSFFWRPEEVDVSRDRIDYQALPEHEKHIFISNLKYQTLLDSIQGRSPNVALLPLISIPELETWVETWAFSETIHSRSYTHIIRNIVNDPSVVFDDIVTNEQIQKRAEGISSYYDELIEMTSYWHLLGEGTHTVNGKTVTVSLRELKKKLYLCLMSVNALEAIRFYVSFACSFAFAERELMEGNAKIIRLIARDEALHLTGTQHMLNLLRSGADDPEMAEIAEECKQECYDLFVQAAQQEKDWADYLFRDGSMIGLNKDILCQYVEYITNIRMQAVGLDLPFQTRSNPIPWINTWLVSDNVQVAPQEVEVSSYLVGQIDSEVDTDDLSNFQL

The target of series [5] is wt β2 (E. coli) (UniProt P69924). Kind of series: cell-based or functional assay.

As for `[N-]=[N+]=N[C@@H]1[C@H](O)[C@@H](COP(=O)(O)OP(=O)(O)O)O[C@H]1n1cnc2c(N)ncnc21` [N3ADP, 2′-Azido-2′-deoxyadenosine-5′-diphosphate], in series [1], the “initial Y122• lost (forming an equivalent amount of N•)” value is 50-60%.
On to `O[C@H](CS)[C@H](O)CS` (racemic) [DTT, DL-dithiothreitol], for which, in series [2] (presence of DTT (0.1 mM) vs. only NH2Y or absence of NH2Y/DTT), the “cells grow more slowly (rate)” value was 25-35%.
For `Nc1cc(C[C@H](N)C(=O)O)ccc1O` [NH2Y, 3-aminotyrosine], the “effect on growth rates” value in series [2] (NH2Y (1 mM) or NH2Y/DTT in GMML medium and agar plates) is reported as “not significantly affected”.
Take `N[C@@H](Cc1ccc(O)c(O)c1)C(=O)O` [DOPA, 3,4-dihydroxyphenylalanine]: the “reduction potential lower than that of Y” value in series [3] is recorded as 260 mV.

B1: Y730NH2Y-α2 (protein)
chain: MNQNLLVTKRDGSTERINLDKIHRVLDWAAEGLHNVSISQVELRSHIQFYDGIKTSDIHETIIKAAADLISRDAPDYQYLAARLAIFHLRKKAYGQFEPPALYDHVVKMVEMGKYDNHLLEDYTEEEFKQMDTFIDHDRDMTFSYAAVKQLEGKYLVQNRVTGEIYESAQFLYILVAACLFSNYPRETRLQYVKRFYDAVSTFKISLPTPIMSGVRTPTRQFSSCVLIECGDSLDSINATSSAIVKYVSQRAGIGINAGRIRALGSPIRGGEAFHTGCIPFYKHFQTAVKSCSQGGVRGGAATLFYPMWHLEVESLLVLKNNRGVEGNRVRHMDYGVQINKLMYTRLLKGEDITLFSPSDVPGLYDAFFADQEEFERLYTKYEKDDSIRKQRVKAVELFSLMMQERASTGRIYIQNVDHCNTHSPFDPAIAPVRQSNLCLEIALPTKPLNDVNDENGEIALCTLSAFNLGAINNLDELEELAILAVRALDALLDYQDYPIPAAKRGAMGRRTLGIGVINFAYYLAKHGKRYSDGSANNLTHKTFEAIQYYLLKASNELAKEQGACPWFNETTYAKGILPIDTYKKDLDTIANEPLHYDWEALRESIKTHGLRNSTLSALMPSETSSQISNATNGIEPPRGYVSIKASKDGILRQVVPDYEHLHDAYELLWEMPGNDGYLQLVGIMQKFIDQSISANTNYDPSRFPSGKVPMQQLLKDLLTAYKFGVKTLYYQNTRDGAEDAQDDLVPSIQDDGCESGACKI
Take B1: in series [4], the “kobs / Ampl, 1st phase, without CDP/ATP” value is “No changes observed”; the “kobs / Ampl, 2nd phase, without CDP/ATP” value is given as “No changes observed”; the “rate constant of formation of NH2Y• at 325 nm (fast phase)” value is 13.6 ± 0.1 s⁻¹; the “rate constant of formation of NH2Y• at 325 nm (slow phase)” value is 2.5 ± 0.1 s⁻¹. For the same molecule, in series [4], the “rate constant of loss of Y122• at 410 nm (fast phase)” value worked out at 12.0 ± 0.1 s⁻¹ and the “rate constant of loss of Y122• at 410 nm (slow phase)” value stood at 2.4 ± 0.1 s⁻¹. In series [4] (in 1/s), the “kobs, 1st phase (stopped-flow UV-vis, Y122• loss / NH2Y730• formation, with CDP/ATP)” value is on record as 12.8 ± 0.8, 20 ± 1 and the “kobs, 2nd phase (stopped-flow UV-vis, Y122• loss / NH2Y730• formation, with CDP/ATP)” value is 2.5 ± 0.1, 19 ± 1.

B2: Y730NH2Y-α2 (enzyme, E. coli, UniProt P00452 1-761, looked up)
chain: MNQNLLVTKRDGSTERINLDKIHRVLDWAAEGLHNVSISQVELRSHIQFYDGIKTSDIHETIIKAAADLISRDAPDYQYLAARLAIFHLRKKAYGQFEPPALYDHVVKMVEMGKYDNHLLEDYTEEEFKQMDTFIDHDRDMTFSYAAVKQLEGKYLVQNRVTGEIYESAQFLYILVAACLFSNYPRETRLQYVKRFYDAVSTFKISLPTPIMSGVRTPTRQFSSCVLIECGDSLDSINATSSAIVKYVSQRAGIGINAGRIRALGSPIRGGEAFHTGCIPFYKHFQTAVKSCSQGGVRGGAATLFYPMWHLEVESLLVLKNNRGVEGNRVRHMDYGVQINKLMYTRLLKGEDITLFSPSDVPGLYDAFFADQEEFERLYTKYEKDDSIRKQRVKAVELFSLMMQERASTGRIYIQNVDHCNTHSPFDPAIAPVRQSNLCLEIALPTKPLNDVNDENGEIALCTLSAFNLGAINNLDELEELAILAVRALDALLDYQDYPIPAAKRGAMGRRTLGIGVINFAYYLAKHGKRYSDGSANNLTHKTFEAIQYYLLKASNELAKEQGACPWFNETTYAKGILPIDTYKKDLDTIANEPLHYDWEALRESIKTHGLRNSTLSALMPSETSSQISNATNGIEPPRGYVSIKASKDGILRQVVPDYEHLHDAYELLWEMPGNDGYLQLVGIMQKFIDQSISANTNYDPSRFPSGKVPMQQLLKDLLTAYKFGVKTLYYQNTRDGAEDAQDDLVPSIQDDGCESGACKI
modifications: 3-aminotyrosine (NH2Y) in place of Tyr at 730 (E. coli RNR numbering)
In the case of B2, in series [5], the Ampl, 1st phase (% of total initial Y122• trapped, with CDP/ATP) turned out to be 20%; the Ampl, 2nd phase (% of total initial Y122• trapped, with CDP/ATP) was determined as 19%; the EPR spin quantitation at 10 s: share of remaining spin in the new signal (NH2Y730•), with CDP/ATP was 53%; the total initial Y122• consumed at 2 s is 39%.

B3: Y731NH2Y-α2 (enzyme, E. coli, UniProt P00452 1-761, looked up)
chain: MNQNLLVTKRDGSTERINLDKIHRVLDWAAEGLHNVSISQVELRSHIQFYDGIKTSDIHETIIKAAADLISRDAPDYQYLAARLAIFHLRKKAYGQFEPPALYDHVVKMVEMGKYDNHLLEDYTEEEFKQMDTFIDHDRDMTFSYAAVKQLEGKYLVQNRVTGEIYESAQFLYILVAACLFSNYPRETRLQYVKRFYDAVSTFKISLPTPIMSGVRTPTRQFSSCVLIECGDSLDSINATSSAIVKYVSQRAGIGINAGRIRALGSPIRGGEAFHTGCIPFYKHFQTAVKSCSQGGVRGGAATLFYPMWHLEVESLLVLKNNRGVEGNRVRHMDYGVQINKLMYTRLLKGEDITLFSPSDVPGLYDAFFADQEEFERLYTKYEKDDSIRKQRVKAVELFSLMMQERASTGRIYIQNVDHCNTHSPFDPAIAPVRQSNLCLEIALPTKPLNDVNDENGEIALCTLSAFNLGAINNLDELEELAILAVRALDALLDYQDYPIPAAKRGAMGRRTLGIGVINFAYYLAKHGKRYSDGSANNLTHKTFEAIQYYLLKASNELAKEQGACPWFNETTYAKGILPIDTYKKDLDTIANEPLHYDWEALRESIKTHGLRNSTLSALMPSETSSQISNATNGIEPPRGYVSIKASKDGILRQVVPDYEHLHDAYELLWEMPGNDGYLQLVGIMQKFIDQSISANTNYDPSRFPSGKVPMQQLLKDLLTAYKFGVKTLYYQNTRDGAEDAQDDLVPSIQDDGCESGACKI
modifications: 3-aminotyrosine (NH2Y) in place of Tyr at 731 (E. coli RNR numbering)
B3: in series [5], the Ampl, 1st phase (% of total initial Y122• trapped, with CDP/ATP) is 24%; the Ampl, 2nd phase (% of total initial Y122• trapped, with CDP/ATP) worked out at 11%; the EPR spin quantitation at 10 s: share of remaining spin associated with NH2Y731•, with CDP/ATP was determined as 45%; the total initial Y122• consumed at 2 s was found to be 35%.
